Experiment [1] addresses T1, HIS-PDZ1-2 protein (PSD-95 PDZ1-2 tandem, residues 61-249, with tag …) (human), P78352. Briefly: ITC; monomeric IETAV, no linker. (In general: In ITC the heat of successive injections is recorded.)
The target of experiment [2] is T1, HIS-PDZ1-2 protein (PSD-95 PDZ1-2 …). The experiment in a line: FP competition, fluorescent NR2B probe.
The target of experiment [3] is T2, HIS-PDZ2 protein (PSD-95 PDZ2, residues 155-249, with tag …) (human), P78352.
T2 chain: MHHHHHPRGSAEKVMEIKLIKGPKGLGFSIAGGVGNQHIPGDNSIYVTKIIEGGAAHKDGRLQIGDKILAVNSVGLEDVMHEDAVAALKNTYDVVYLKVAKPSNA
Briefly: FP competition, fluorescent NR2B probe.

Experiment [4] concerns the target T3, HIS-PDZ1 protein (PSD-95 PDZ1, residues 61-151, with tag …) (human), P78352. The experiment in a line: FP competition, fluorescent NR2B probe.
The target in experiment [5] is T3, HIS-PDZ1 protein (PSD-95 PDZ1, residues …). The experiment in a line: FP competition, fluorescent NR2B probe; truncation series of NR2B peptide (1).
For experiment [6], the target named is T2, HIS-PDZ2 protein (PSD-95 PDZ2, residues …). Described as above.

One may read the Kd as the equilibrium constant for the complex coming apart. Higher therefore signals a looser complex. For orientation: Ki means the equilibrium dissociation constant of an inhibitor or competing ligand from its target. Low readings indicate higher affinity, high ones lower affinity.

B1: IETAV (82) (peptide)
peptide: IETAV
modifications: not checked
For the molecule B1, the Kd in experiment [1] is 1.9 µM. Further, the inhibition constant (Ki) in experiment [2] came to 2.5 µM; in experiment [3], 1.7 µM.

B2: ESDV (8) (peptide)
peptide: ESDV
modifications: not checked
As for B2, the Ki in experiment [4] is 56 µM; in experiment [2], 28 µM; in experiment [3], 28 µM. The figures for the fold increase in Ki in experiment [5] and in experiment [6] were 3.1 fold and 6.8 fold, respectively.

(Values after patent US20160176924A1, “MODIFIED PEPTIDES AS POTENT INHIBITORS OF THE PSD-95/NMDA RECEPTOR INTERACTION” (priority 2008, published 2016).)
